Test results from the supplement of paper PMC10065799, “High-throughput profiling of sequence recognition by tyrosine kinases and SH2 domains using bacterial peptide display” (eLife, 2023).

Each sequence was assayed against SHP2-C SH2 (assay: SH2 binding enrichment of the phosphorylated peptide, bacterial display (enrichment ratio); higher = better substrate or ligand; peptides without Tyr show the background).
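Further: peptide library displayed on the E. coli surface as eCPX fusions, selected cells deep-sequenced, score is each peptide's frequency after selection divided by its frequency in the input.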

Row | Sequence | SH2 binding enrichment
1 | SARFRYLMAEK [LDHB_Y173] | 0.508
2 | SGVNKYSTAFG [GJB3_Y16] | 0.658
3 | LERFIYNREEF [HLA-DPB1_Y59_F64Y_YF] | 0.631
4 | NSGFFYKTAEE [CCT6B_Y250] | 0.586
5 | QDDTVYMGKVT [DCTN1_Y1244] | 0.974
6 | LGNIVYSSLCG [BCOR_Y90_P85L] | 1.44
7 | LHRHAYPEQRQ [DPPA2_Y127] | 1.11
8 | RLLVVYHWTQR [HBD_Y36_P37H] | 1.27
9 | TTGGFYSFGGG [KRT24_Y120_A115T_YF] | 0.618
10 | ALAHKHHGGGG [HBB_Y146_Y146H] | 0.673
11 | VEKGSYSALLA [ABCC2_Y845] | 0.686
12 | FDEFRYRSFIK [CFTR_Y517_V520F_YF] | 0.41
13 | RLVTRYIYNRE [HLA-DQB1_Y62_Y58L] | 0.906
14 | SSREEYFIGGG [GYPC_Y126_K124E] | 0.895
15 | LKRCQYVTEKV [ALDOA_Y204] | 0.654
16 | PCPANYFAFKI [FAM3D_Y65] | 0.69

Now from value to sequence:

Row | SH2 binding enrichment | Sequence
17 | 1.76 | LLILEYAKFGS [RET_Y806_V804L_YF]
18 | 0.868 | HGEAFYSEVKP [PAK5_Y182_YF]
19 | 1.1 | TQPSPYAVFRF [RPGRIP1_Y823_YF]
20 | 0.791 | RKEAQYMLENE [SLC16A6_Y224]
21 | 1.06 | TGEKPYECVQC [ZNF24_Y335]
22 | 0.996 | FIGVTYKNKED [PDGFRA_Y993_E996K_YF]
23 | 2.53 | CTTIHYNYMCI [TP53_Y234_N239I]
24 | 0.621 | KAPVDYIRKLQ [MITF_Y360_S357P]
25 | 1.47 | IFCIQYNICAF [MYH4_Y820_R823C]
26 | 0.64 | GGDQPYSGAGD [TYRO3_Y828_R824G]
27 | 0.555 | NGEDLYAGSTD [XRCC1_Y515_P514L]
28 | 0.629 | PGVNYYFQVSA
29 | 0.633 | RTEAQYRFIFM [PTPN11_Y511_Q506R_YF]
30 | 2.27 | ETKTPYTVILI [SBDS_Y128_R126T]
31 | 0.765 | SLLTDCSPQLQ [OTC_Y345_Y345C]
32 | 1.27 | IYHLSYIHNCE [PDE6B_Y227_L228I]
33 | 0.631 | GVASDYKCVDP [VPS13B_Y1991_I1994V]

What follows are sequences tested against c-Src SH2 in the same assay as above.

Row | Sequence | SH2 binding enrichment
34 | SARFRYLMAEK [LDHB_Y173] | 0.543
35 | SGVNKYSTAFG [GJB3_Y16] | 0.428
36 | LERFIYNREEF [HLA-DPB1_Y59_F64Y_YF] | 0.607
37 | NSGFFYKTAEE [CCT6B_Y250] | 0.546
38 | QDDTVYMGKVT [DCTN1_Y1244] | 0.649
39 | LGNIVYSSLCG [BCOR_Y90_P85L] | 0.551
40 | LHRHAYPEQRQ [DPPA2_Y127] | 1.19
41 | RLLVVYHWTQR [HBD_Y36_P37H] | 1.27
42 | TTGGFYSFGGG [KRT24_Y120_A115T_YF] | 0.418
43 | ALAHKHHGGGG [HBB_Y146_Y146H] | 0.586
44 | VEKGSYSALLA [ABCC2_Y845] | 1.45
45 | FDEFRYRSFIK [CFTR_Y517_V520F_YF] | 0.414
46 | RLVTRYIYNRE [HLA-DQB1_Y62_Y58L] | 0.39
47 | SSREEYFIGGG [GYPC_Y126_K124E] | 0.486
48 | LKRCQYVTEKV [ALDOA_Y204] | 0.53
49 | PCPANYFAFKI [FAM3D_Y65] | 0.594

Results, then the sequence that gave them:

Row | SH2 binding enrichment | Sequence
50 | 1.21 | LLILEYAKFGS [RET_Y806_V804L_YF]
51 | 1.22 | HGEAFYSEVKP [PAK5_Y182_YF]
52 | 0.696 | TQPSPYAVFRF [RPGRIP1_Y823_YF]
53 | 0.703 | RKEAQYMLENE [SLC16A6_Y224]
54 | 3.11 | TGEKPYECVQC [ZNF24_Y335]
55 | 0.566 | FIGVTYKNKED [PDGFRA_Y993_E996K_YF]
56 | 2.6 | CTTIHYNYMCI [TP53_Y234_N239I]
57 | 0.489 | KAPVDYIRKLQ [MITF_Y360_S357P]
58 | 1.21 | IFCIQYNICAF [MYH4_Y820_R823C]
59 | 0.596 | GGDQPYSGAGD [TYRO3_Y828_R824G]
60 | 0.469 | NGEDLYAGSTD [XRCC1_Y515_P514L]
61 | 0.561 | PGVNYYFQVSA
62 | 0.409 | RTEAQYRFIFM [PTPN11_Y511_Q506R_YF]
63 | 0.54 | ETKTPYTVILI [SBDS_Y128_R126T]
64 | 0.483 | SLLTDCSPQLQ [OTC_Y345_Y345C]
65 | 0.819 | IYHLSYIHNCE [PDE6B_Y227_L228I]
66 | 0.622 | GVASDYKCVDP [VPS13B_Y1991_I1994V]
